Experimental data from patent US20210139593A1 (UNIVERSIDAD DE CHILE, published 2021).

Molecular target: T1, recombinant MICA (rMICA) (UniProt Q29983 24-307, limits assumed)
T1 construct: Recombinant MICA coated on ELISA plates
T1 sequence (looked up): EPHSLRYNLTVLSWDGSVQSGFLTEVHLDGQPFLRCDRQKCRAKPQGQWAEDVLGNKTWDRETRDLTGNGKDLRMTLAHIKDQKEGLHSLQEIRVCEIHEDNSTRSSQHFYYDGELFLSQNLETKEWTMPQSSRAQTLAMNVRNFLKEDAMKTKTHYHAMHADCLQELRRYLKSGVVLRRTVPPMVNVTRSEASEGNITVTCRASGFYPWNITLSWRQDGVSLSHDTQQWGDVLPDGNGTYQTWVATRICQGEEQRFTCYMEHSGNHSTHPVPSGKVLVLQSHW
Experiment: method not stated

B1: anti-MICA scFv protein (scFv-aMICA) (scFv)
scFv: EFGVVMTQSPDFQSVTPKEKVTITCRASQSIGRSIHWYQQKPDQSPKLLVMYASQSFSGVPSRFSGSGSGTDFTLTINSLEAEDAATYYCHQSYSVPRSFGQGTKLEIKRTVAAGGSSRSSSSGGGGSGGGGQVQLQESGPGLVKPSQTLSLTCTVSGDSVRSAYSSWNWIRQPPGKGLEWIGQIHPNGNTYYNPSLMSRITVSIDTSKNQFSLKLDSVTAADTAVYFCATEGVTSESGSFDIWGQGRMVIVSSASTKGPSVAS
notes: Monomeric soluble scFv produced from the phagemid pUCH1 Amber; also called scFv-MICA
- Ka: 7.4e+06 M⁻¹
- Kd: 135 nM
